Measured values taken from publication PMC7823558 (Viruses, 2020).
Read-outs that look alike come from different tables or passages of the source.

What was measured:
[1] = test system: T1, gp11; assay: coupled pyruvate kinase / lactate dehydrogenase assay, NADH absorbance at […] nm; format: biochemical, Lactococcus phage asccphi28; conditions: 0.1 µM gp11, 50 mM Tris pH 7.5, 72 mM KCl, 7.2 mM MgSO4, 2 mM PEP, 0.3 mM NADH
T1 construct: E. coli BL21(DE3)

[2] = molecular target: gene product 11 (gp11), DNA packaging ATPase from Lactococcus lactis phage asccφ28 (Lactococcus lactis phage asccφ28); assay: SEC
[3] = molecular target: gene product 11 (gp11), DNA packaging ATPase from Lactococcus lactis phage asccφ28 (Lactococcus lactis phage asccφ28); assay: AUC
[4] = molecular target: gene product 11 (gp11), DNA packaging ATPase from Lactococcus lactis phage asccφ28 (Lactococcus lactis phage asccφ28); assay: AUC; sedimentation velocity, data not shown

Compound: Nc1ncnc2c1ncn2[C@@H]1O[C@H](COP(=O)(O)OP(=O)(O)OP(=O)(O)O)[C@@H](O)[C@H]1O [ATP]
- Km ([1]; read-out: ATP): 28 µM

Compound: Nc1nc2c(ncn2[C@@H]2O[C@H](COP(=O)(O)OP(=O)(O)OP(=O)(O)O)[C@@H](O)[C@H]2O)c(=O)[nH]1 [GTP]
- Km ([1]; read-out: GTP): 344 µM

Compound: gene product 11 (gp11), DNA packaging ATPase from Lactococcus lactis phage asccφ28 (enzyme)
- stoichiometry N [2]: 4 to 15 copies
- stoichiometry N [3]: 10 monomers
- stoichiometry N [4]: 10 monomers
